In patent US20260242492A1 (JOINT STOCK COMPANY BIOCAD, published 2026):

T1: biotinylated peptide [NH2]CEPANPSEKNSPSTQYCYSIQS[CH2CH2]biotin comprising a fragment of the human CD20 … (human, [NH2] at the N-terminus; [CH2CH2]biotin at the C-terminus (so in the source))
T1 construct: Immobilized on streptavidin (SAX) sensors; also called CD20 peptide
T1 peptide: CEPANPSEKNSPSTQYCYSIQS


Key:
[1] = biological target: T1, biotinylated peptide …; assay: BLI (Octet RED 384), biotinylated CD20 peptide on SAX sensors, antibody-like molecule as analyte, 1:1 model, global fit
Experimental: (§1) Experiments were carried out using a kinetic buffer solution (hereinafter referred to as 1×KB); volume fraction of added Tween 20 was 0.1%; mass fraction of added BSA (bovine serum albumin) was 0.1%; pH 7.4. Before the measurement, the ProA sensors were regenerated with a solution of 50 mM glycine and hydrochloric acid, pH 1.8 (5 seconds in the regenerating solution, 5 seconds in 1×KB, three repetitions).
In the case of biotinylated […], the peptide at a concentration of 2.5 μg/ml was immobilized on the surface of SAX sensors (High Precision Streptavidin (SAX) biosensors, ForteBio) for 300 seconds. The baseline was recorded in a 1×KB solution for 120 seconds. Sensors loaded with peptide were then immersed into wells containing the solution of antibody-like molecule (analyte) in 1×KB for 300 seconds. Measurements were performed for solutions with analyte (antibody-like molecule in case of CD20 peptide) at concentrations […] and 75 µg/ml. Complex dissociation was recorded in 1×KB for 60 seconds.
(§2) To obtain numerical values of kinetic constants (kon is the on/association rate constant, kdis is the dissociation rate constant, KD is the equilibrium dissociation constant or affinity constant), the resulting sensograms were processed according to the 1:1 interaction model using Global Fit (selection of one set of kon, kdis, KD constants to analyze several sensograms of different concentrations) of the ForteBio Octet Data Analysis 9.0 software.

[2] = biological target: T2, extracellular domain of the human PD-1 protein (hPD1ex-H6F) (human, UniProt Q15116 21-170); assay: BLI (Octet RED 384), antibody-like molecule on ProA sensors, hPD1ex-H6F analyte 485.4 nM, 1:1 model
T2 construct: Made in CHO cells, molecular weight 20.6 kDa as printed; also called hPDlex-H6F
T2 sequence (Q15116 21-170 limits assumed, form in doubt): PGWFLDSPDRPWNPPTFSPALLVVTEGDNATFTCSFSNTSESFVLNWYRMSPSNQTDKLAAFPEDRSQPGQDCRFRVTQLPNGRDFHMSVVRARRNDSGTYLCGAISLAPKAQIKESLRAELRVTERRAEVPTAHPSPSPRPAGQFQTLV
Experimental: as §1
(§3) In the case of the hPDlex-H6F and hCSF1R_His antigens, the Protein A (ProA) biosensors (ForteBio) were immersed in a solution with antibody-like molecules at a concentration of 10 µg/ml for 300 seconds to immobilize same. The baseline was recorded in 1×KB for 120 seconds. Sensors loaded with the antibody-like molecule were then immersed into wells containing a solution of the target antigen (analyte) in a kinetic buffer for 300 seconds. Measurements were performed for solutions with hPDlex-H6F analyte at concentrations of 10 µg/ml (485.4 nM), for solutions with hCSF1R_His analyte at concentrations of 10 µg/ml (174.2 nM). Complex dissociation in 1×KB was then detected for 600 seconds.
as §2

[3] = biological target: T3, extracellular domain of the human CSF1R protein (hCSF1R_His) (human, UniProt P07333 20-512); assay: BLI (Octet RED 384), antibody-like molecule on ProA sensors, hCSF1R_His analyte 174.2 nM, 1:1 model
T3 construct: range 20-512; Made in CHO cells, molecular weight 57.4 kDa as printed; not shown: C-terminal His-tag and FLAG-tag
T3 sequence (P07333 20-512 limits assumed): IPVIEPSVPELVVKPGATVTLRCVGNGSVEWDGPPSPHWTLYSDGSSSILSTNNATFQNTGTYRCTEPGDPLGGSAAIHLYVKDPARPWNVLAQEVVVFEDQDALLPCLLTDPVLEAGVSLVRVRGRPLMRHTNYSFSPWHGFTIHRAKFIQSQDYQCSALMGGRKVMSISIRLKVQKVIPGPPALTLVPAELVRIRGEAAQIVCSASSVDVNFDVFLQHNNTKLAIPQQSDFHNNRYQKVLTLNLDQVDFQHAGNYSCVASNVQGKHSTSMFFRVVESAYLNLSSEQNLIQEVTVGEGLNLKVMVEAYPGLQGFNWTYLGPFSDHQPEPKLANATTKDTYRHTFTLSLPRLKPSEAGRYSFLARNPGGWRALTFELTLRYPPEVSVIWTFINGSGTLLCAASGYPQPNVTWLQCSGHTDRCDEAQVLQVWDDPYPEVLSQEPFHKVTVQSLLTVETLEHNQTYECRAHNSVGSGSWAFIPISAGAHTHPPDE
Experimental: as §1, §3, §2

Kd [1] | koff [1] | kon [1] | Kd [2] | koff [2] | kon [2] | Kd [3] | koff [3] | kon [3] | Binder
845 nM | 0.0986 s⁻¹ | 117000 M⁻¹ s⁻¹ | 16.9 nM | 0.000658 s⁻¹ | 39000 M⁻¹ s⁻¹ |  |  |  | antibody-like molecule 08-002 (binds CD20 and PD1) (bispecific antibody, human IgG1, kappa, L234A L235A, Four distinct chains: Ocrelizumab Fab arm (hole) and Prolgolimab Fab-like arm with b2m/CD1b alpha3 dimerization unit (knob)) heavy 1: EVQLVESGGGLVQPGGSLRLSCAASGYTFTSYNMHWVRQAPGKGLEWVGAIYPGNGDTSYNQKFKGRFTISVDKSKNTLYLQMNSLRAEDTAVYYCARVVYYSNSYWYFDVWGQGTLVTVSSASTKGPSVFPLAPSSKSTSGGTAALGCLVKDYFPEPVTVSWNSGALTSGVHTFPAVLQSSGLYSLSSVVTVPSSSLGTQTYICNVNHKPSNTKVDKRVEPKSCDKTHTCPPCPAPEAAGGPSVFLFPPKPKDTLYITREPEVTCVVVDVSHEDPEVKFNWYVDGVEVHNAKTKPREEQYNSTYRVVSVLTVLHQDWLNGKEYKCKVSNKALPAPIEKTISKAKGQPREPQVCTLPPSRDELTKNQVSLSCAVKGFYPSDIAVEWESNGQPENNYKTTPPVLDSDGSFFLVSKLTVDKSRWQQGNVFSCSVMHEALHNHYTQKSLSLSPGK light 1: DIQMTQSPSSLSASVGDRVTITCRASSSVSYMHWYQQKPGKAPKPLIYAPSNLASGVPSRFSGSGSGTDFTLTISSLQPEDFATYYCQQWSFNPPTFGQGTKVEIKRTVAAPSVFIFPPSDEQLKSGTASVVCLLNNFYPREAKVQWKVDNALQSGNSQESVTEQDSKDSTYSLSSTLTLSKADYEKHKVYACEVTHQGLSSPVTKSFNRGEC heavy 2: not shown light 2: QPVLTQPLSVSVALGQTARITCGGNNIGSKNVHWYQQKPGQAPVLVIYRDSNRPSGIPERFSGSNSGNTATLTISRAQAGDEADYYCQVWDSSTAVFGTGTKLTVLQQRQVKPEAWLSKGPSPGPGRLQLVCHVSGFYPKPVWVMWMRGEQEQQGTQLGDILPNADWTWYLRATLDVADGEAAGLSCRVKHSSLEGQDIILYWRGSC
483 nM | 0.0581 s⁻¹ | 120000 M⁻¹ s⁻¹ |  |  |  | 1.4 nM | 0.000253 s⁻¹ | 181000 M⁻¹ s⁻¹ | antibody-like molecule 08-005 (binds CD20 and CSF1R) (bispecific antibody, human IgG1, kappa, L234A L235A, Four distinct chains: Ocrelizumab Fab arm (hole) and anti-CSF1R Fab-like arm with b2m/CD1b alpha3 dimerization unit (knob)) heavy 1: EVQLVESGGGLVQPGGSLRLSCAASGYTFTSYNMHWVRQAPGKGLEWVGAIYPGNGDTSYNQKFKGRFTISVDKSKNTLYLQMNSLRAEDTAVYYCARVVYYSNSYWYFDVWGQGTLVTVSSASTKGPSVFPLAPSSKSTSGGTAALGCLVKDYFPEPVTVSWNSGALTSGVHTFPAVLQSSGLYSLSSVVTVPSSSLGTQTYICNVNHKPSNTKVDKRVEPKSCDKTHTCPPCPAPEAAGGPSVFLFPPKPKDTLYITREPEVTCVVVDVSHEDPEVKFNWYVDGVEVHNAKTKPREEQYNSTYRVVSVLTVLHQDWLNGKEYKCKVSNKALPAPIEKTISKAKGQPREPQVCTLPPSRDELTKNQVSLSCAVKGFYPSDIAVEWESNGQPENNYKTTPPVLDSDGSFFLVSKLTVDKSRWQQGNVFSCSVMHEALHNHYTQKSLSLSPGK light 1: DIQMTQSPSSLSASVGDRVTITCRASSSVSYMHWYQQKPGKAPKPLIYAPSNLASGVPSRFSGSGSGTDFTLTISSLQPEDFATYYCQQWSFNPPTFGQGTKVEIKRTVAAPSVFIFPPSDEQLKSGTASVVCLLNNFYPREAKVQWKVDNALQSGNSQESVTEQDSKDSTYSLSSTLTLSKADYEKHKVYACEVTHQGLSSPVTKSFNRGEC heavy 2: not shown light 2: QAGLTQPPSVSVAPGQTARITCGGNNIGSKSVHWYQQKPGQAPVLVVYGDSDRPSGIPERFSGSNSGNTATLTISRVEAGDEADYYCQVWDISSDHVVFGGGTQLTVLQRQVKPEAWLSKGPSPGPGRLQLVCHVSGFYPKPVWVMWMRGEQEQQGTQLGDILPNADWTWYLRATLDVADGEAAGLSCRVKHSSLEGQDIILYWRGSC
 |  |  | 13.7 nM | 0.000568 s⁻¹ | 41400 M⁻¹ s⁻¹ | 2.23 nM | 0.000443 s⁻¹ | 199000 M⁻¹ s⁻¹ | antibody-like molecule 08-004 (binds CSF1R and PD1) (bispecific antibody, human IgG1, kappa, L234A L235A, Four distinct chains: anti-CSF1R Fab arm (hole) and Prolgolimab Fab-like arm with b2m/CD1b alpha3 dimerization unit (knob)) heavy 1: QVQLVESGGGLVRPGGSLRLSCAASEFTFDDYAMSWVRQAPGKGLEWVSAISWNGGSTNYADSVKGRFTISRDNAKNSLYLQMNSLRAEDTALYYCASTVEVAHRRLYKYLEVWGQGTLVTVSSASTKGPSVFPLAPSSKSTSGGTAALGCLVKDYFPEPVTVSWNSGALTSGVHTFPAVLQSSGLYSLSSVVTVPSSSLGTQTYICNVNHKPSNTKVDKRVEPKSCDKTHTCPPCPAPEAAGGPSVFLFPPKPKDTLYITREPEVTCVVVDVSHEDPEVKFNWYVDGVEVHNAKTKPREEQYNSTYRVVSVLTVLHQDWLNGKEYKCKVSNKALPAPIEKTISKAKGQPREPQVCTLPPSRDELTKNQVSLSCAVKGFYPSDIAVEWESNGQPENNYKTTPPVLDSDGSFFLVSKLTVDKSRWQQGNVFSCSVMHEALHNHYTQKSLSLSPGK light 1: QAGLTQPPSVSVAPGQTARITCGGNNIGSKSVHWYQQKPGQAPVLVVYGDSDRPSGIPERFSGSNSGNTATLTISRVEAGDEADYYCQVWDISSDHVVFGGGTQLTVLRTVAAPSVFIFPPSDEQLKSGTASVVCLLNNFYPREAKVQWKVDNALQSGNSQESVTEQDSKDSTYSLSSTLTLSKADYEKHKVYACEVTHQGLSSPVTKSFNRGEC heavy 2: not shown light 2: QPVLTQPLSVSVALGQTARITCGGNNIGSKNVHWYQQKPGQAPVLVIYRDSNRPSGIPERFSGSNSGNTATLTISRAQAGDEADYYCQVWDSSTAVFGTGTKLTVLQQRQVKPEAWLSKGPSPGPGRLQLVCHVSGFYPKPVWVMWMRGEQEQQGTQLGDILPNADWTWYLRATLDVADGEAAGLSCRVKHSSLEGQDIILYWRGSC
848 nM | 0.139 s⁻¹ | 164000 M⁻¹ s⁻¹ | 15.9 nM | 0.000601 s⁻¹ | 37800 M⁻¹ s⁻¹ |  |  |  | antibody-like molecule 08-001 (binds PD1 and CD20) (bispecific antibody, human IgG1, kappa, L234A L235A) heavy 1: QVQLVQSGGGLVQPGGSLRLSCAASGFTFSSYWMYWVRQVPGKGLEWVSAIDTGGGRTYYADSVKGRFAISRVNAKNTMYLQMNSLRAEDTAVYYCARDEGGGTGWGVLKDWPYGLDAWGQGTLVTVSSASTKGPSVFPLAPSSKSTSGGTAALGCLVKDYFPEPVTVSWNSGALTSGVHTFPAVLQSSGLYSLSSVVTVPSSSLGTQTYICNVNHKPSNTKVDKRVEPKSCDKTHTCPPCPAPEAAGGPSVFLFPPKPKDTLYITREPEVTCVVVDVSHEDPEVKFNWYVDGVEVHNAKTKPREEQYNSTYRVVSVLTVLHQDWLNGKEYKCKVSNKALPAPIEKTISKAKGQPREPQVCTLPPSRDELTKNQVSLSCAVKGFYPSDIAVEWESNGQPENNYKTTPPVLDSDGSFFLVSKLTVDKSRWQQGNVFSCSVMHEALHNHYTQKSLSLSPGK light 1: QPVLTQPLSVSVALGQTARITCGGNNIGSKNVHWYQQKPGQAPVLVIYRDSNRPSGIPERFSGSNSGNTATLTISRAQAGDEADYYCQVWDSSTAVFGTGTKLTVLQRTVAAPSVFIFPPSDEQLKSGTASVVCLLNNFYPREAKVQWKVDNALQSGNSQESVTEQDSKDSTYSLSSTLTLSKADYEKHKVYACEVTHQGLSSPVTKSFNRGEC heavy 2: not shown light 2: DIQMTQSPSSLSASVGDRVTITCRASSSVSYMHWYQQKPGKAPKPLIYAPSNLASGVPSRFSGSGSGTDFTLTISSLQPEDFATYYCQQWSFNPPTFGQGTKVEIKQRQVKPEAWLSKGPSPGPGRLQLVCHVSGFYPKPVWVMWMRGEQEQQGTQLGDILPNADWTWYLRATLDVADGEAAGLSCRVKHSSLEGQDIILYWRGSC
 |  |  | 12.4 nM | 0.000487 s⁻¹ | 39200 M⁻¹ s⁻¹ | 1.44 nM | 0.000238 s⁻¹ | 165000 M⁻¹ s⁻¹ | antibody-like molecule 08-003 (binds PD1 and CSF1R) (bispecific antibody, human IgG1, kappa, L234A L235A, Four distinct chains: Prolgolimab Fab arm (hole) and anti-CSF1R Fab-like arm with b2m/CD1b alpha3 dimerization unit (knob)) heavy 1: QVQLVQSGGGLVQPGGSLRLSCAASGFTFSSYWMYWVRQVPGKGLEWVSAIDTGGGRTYYADSVKGRFAISRVNAKNTMYLQMNSLRAEDTAVYYCARDEGGGTGWGVLKDWPYGLDAWGQGTLVTVSSASTKGPSVFPLAPSSKSTSGGTAALGCLVKDYFPEPVTVSWNSGALTSGVHTFPAVLQSSGLYSLSSVVTVPSSSLGTQTYICNVNHKPSNTKVDKRVEPKSCDKTHTCPPCPAPEAAGGPSVFLFPPKPKDTLYITREPEVTCVVVDVSHEDPEVKFNWYVDGVEVHNAKTKPREEQYNSTYRVVSVLTVLHQDWLNGKEYKCKVSNKALPAPIEKTISKAKGQPREPQVCTLPPSRDELTKNQVSLSCAVKGFYPSDIAVEWESNGQPENNYKTTPPVLDSDGSFFLVSKLTVDKSRWQQGNVFSCSVMHEALHNHYTQKSLSLSPGK light 1: QPVLTQPLSVSVALGQTARITCGGNNIGSKNVHWYQQKPGQAPVLVIYRDSNRPSGIPERFSGSNSGNTATLTISRAQAGDEADYYCQVWDSSTAVFGTGTKLTVLQRTVAAPSVFIFPPSDEQLKSGTASVVCLLNNFYPREAKVQWKVDNALQSGNSQESVTEQDSKDSTYSLSSTLTLSKADYEKHKVYACEVTHQGLSSPVTKSFNRGEC heavy 2: not shown light 2: QAGLTQPPSVSVAPGQTARITCGGNNIGSKSVHWYQQKPGQAPVLVVYGDSDRPSGIPERFSGSNSGNTATLTISRVEAGDEADYYCQVWDISSDHVVFGGGTQLTVLQRQVKPEAWLSKGPSPGPGRLQLVCHVSGFYPKPVWVMWMRGEQEQQGTQLGDILPNADWTWYLRATLDVADGEAAGLSCRVKHSSLEGQDIILYWRGSC
